Results published in paper PMC8307404, “Crystal Structure-Guided Design of Bisubstrate Inhibitors and Photoluminescent Probes for Protein Kinases of the PIM Family” (Molecules, 2021).
Square brackets hold non-standard residues; d marks the D form. Peptide text beside a SMILES is read from it. * marks the point of attachment. X3 = O=C(CCCCCNCc1nc2c(sc3cc(Br)cnc32)c(=O)[nH]1)*

Key:
Assay in all cases: Kinase profiling (radiometric filter-binding)
Type in all cases: biochemical
MAPKAP-K3 = MAPKAP-K3 (Homo sapiens, UniProt Q16644); conditions: MAPKAP-K3, 1 µM inhibitor; read-out: Residual activity, %
Outline: (§1)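 Activity remaining (% of control without inhibitor) at 1 µM final compound; human kinases, ATP ≤ KM, radiometric filter binding.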

MKK6 = molecular target: T1, MKK6 (Homo sapiens, UniProt P52564); conditions: MKK6, 1 µM inhibitor; read-out: Residual activity, %
T1 sequence (P52564 1-334): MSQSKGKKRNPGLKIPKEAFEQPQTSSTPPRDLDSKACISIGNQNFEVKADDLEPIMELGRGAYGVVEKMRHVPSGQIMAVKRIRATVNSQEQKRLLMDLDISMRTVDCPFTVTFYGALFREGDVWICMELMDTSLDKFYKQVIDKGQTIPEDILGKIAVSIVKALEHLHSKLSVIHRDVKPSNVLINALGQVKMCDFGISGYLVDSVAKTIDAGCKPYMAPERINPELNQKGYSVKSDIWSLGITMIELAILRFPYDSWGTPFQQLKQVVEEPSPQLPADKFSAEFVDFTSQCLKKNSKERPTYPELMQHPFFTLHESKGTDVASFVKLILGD
Outline: as §1

TTBK1 = TTBK1 (Homo sapiens, UniProt Q5TCY1); conditions: TTBK1, 1 µM inhibitor; read-out: Residual activity, %
Outline: as §1

NEK2 = molecular target: T2, NEK2 (Homo sapiens, UniProt P51955); conditions: NEK2 (letter lost), 1 µM inhibitor; read-out: Residual activity, %
T2 sequence (P51955 1-445): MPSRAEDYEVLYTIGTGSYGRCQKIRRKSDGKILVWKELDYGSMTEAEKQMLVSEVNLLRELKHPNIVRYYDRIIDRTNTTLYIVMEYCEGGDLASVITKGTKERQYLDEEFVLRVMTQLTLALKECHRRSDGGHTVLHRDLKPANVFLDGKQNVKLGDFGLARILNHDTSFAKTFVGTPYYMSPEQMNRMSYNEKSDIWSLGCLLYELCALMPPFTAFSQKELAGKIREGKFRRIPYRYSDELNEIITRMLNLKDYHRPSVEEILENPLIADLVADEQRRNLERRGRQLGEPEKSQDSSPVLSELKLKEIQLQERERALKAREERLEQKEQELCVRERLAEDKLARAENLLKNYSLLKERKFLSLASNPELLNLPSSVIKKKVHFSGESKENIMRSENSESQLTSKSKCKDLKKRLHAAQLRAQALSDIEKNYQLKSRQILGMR
Outline: as §1

FGF-R1 = FGF-R1 (Homo sapiens, UniProt P11362); conditions: FGF-R1, 1 µM inhibitor; read-out: Residual activity, %
Sequence of FGF-R1 (P11362 22-822): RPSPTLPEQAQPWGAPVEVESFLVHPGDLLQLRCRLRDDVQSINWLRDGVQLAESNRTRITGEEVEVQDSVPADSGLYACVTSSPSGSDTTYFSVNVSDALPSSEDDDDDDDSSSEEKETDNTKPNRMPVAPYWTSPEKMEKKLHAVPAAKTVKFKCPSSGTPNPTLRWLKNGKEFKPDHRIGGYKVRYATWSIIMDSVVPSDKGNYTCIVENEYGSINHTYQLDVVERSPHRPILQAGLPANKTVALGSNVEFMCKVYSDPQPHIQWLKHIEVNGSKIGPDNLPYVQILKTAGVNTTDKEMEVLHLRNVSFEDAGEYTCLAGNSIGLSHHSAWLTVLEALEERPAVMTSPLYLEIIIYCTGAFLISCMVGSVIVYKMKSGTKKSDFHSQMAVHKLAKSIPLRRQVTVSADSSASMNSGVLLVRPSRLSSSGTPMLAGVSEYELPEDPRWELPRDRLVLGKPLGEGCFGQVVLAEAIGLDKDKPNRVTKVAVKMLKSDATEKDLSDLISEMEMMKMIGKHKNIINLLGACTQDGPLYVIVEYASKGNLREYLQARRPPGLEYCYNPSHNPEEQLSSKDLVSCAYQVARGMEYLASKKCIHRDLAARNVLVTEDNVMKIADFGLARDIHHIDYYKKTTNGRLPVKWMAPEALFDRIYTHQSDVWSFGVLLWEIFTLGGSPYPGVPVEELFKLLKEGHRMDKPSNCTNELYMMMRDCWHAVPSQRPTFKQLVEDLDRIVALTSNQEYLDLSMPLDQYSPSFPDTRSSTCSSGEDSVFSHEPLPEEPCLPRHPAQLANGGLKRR
Outline: as §1

Lck = Lck (Homo sapiens, UniProt P06239); conditions: 1 µM inhibitor, read-out: Residual activity, %
Sequence of Lck (P06239 whole entry): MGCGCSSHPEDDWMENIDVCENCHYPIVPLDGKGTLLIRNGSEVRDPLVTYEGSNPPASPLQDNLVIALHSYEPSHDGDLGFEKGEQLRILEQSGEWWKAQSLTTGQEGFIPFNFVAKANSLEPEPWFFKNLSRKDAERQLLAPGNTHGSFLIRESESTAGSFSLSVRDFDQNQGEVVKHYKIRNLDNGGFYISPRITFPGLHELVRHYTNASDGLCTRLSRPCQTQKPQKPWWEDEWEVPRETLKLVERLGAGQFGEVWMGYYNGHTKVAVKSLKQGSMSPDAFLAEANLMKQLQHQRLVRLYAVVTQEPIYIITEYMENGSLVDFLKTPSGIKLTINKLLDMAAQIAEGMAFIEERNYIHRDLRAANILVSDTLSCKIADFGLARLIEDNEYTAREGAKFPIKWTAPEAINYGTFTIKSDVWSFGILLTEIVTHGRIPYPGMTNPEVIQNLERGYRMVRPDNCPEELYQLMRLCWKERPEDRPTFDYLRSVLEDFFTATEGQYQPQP
Outline: as §1

MPSK1 = MPSK1 (Homo sapiens, UniProt O75716); conditions: MPSK1, 1 µM inhibitor; read-out: Residual activity, %
Sequence of MPSK1 (O75716 whole entry): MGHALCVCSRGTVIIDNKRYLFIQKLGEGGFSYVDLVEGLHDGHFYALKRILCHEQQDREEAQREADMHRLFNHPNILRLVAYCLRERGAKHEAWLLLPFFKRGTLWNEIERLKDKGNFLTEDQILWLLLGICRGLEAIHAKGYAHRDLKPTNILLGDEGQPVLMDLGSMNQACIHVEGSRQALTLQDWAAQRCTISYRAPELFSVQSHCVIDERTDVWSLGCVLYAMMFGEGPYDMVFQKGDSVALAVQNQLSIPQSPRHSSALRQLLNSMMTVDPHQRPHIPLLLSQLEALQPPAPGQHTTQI
Outline: as §1

JNK3 = JNK3 (Homo sapiens, UniProt P53779); conditions: JNK3, 1 µM inhibitor; read-out: Residual activity, %
Sequence of JNK3 (P53779 whole entry): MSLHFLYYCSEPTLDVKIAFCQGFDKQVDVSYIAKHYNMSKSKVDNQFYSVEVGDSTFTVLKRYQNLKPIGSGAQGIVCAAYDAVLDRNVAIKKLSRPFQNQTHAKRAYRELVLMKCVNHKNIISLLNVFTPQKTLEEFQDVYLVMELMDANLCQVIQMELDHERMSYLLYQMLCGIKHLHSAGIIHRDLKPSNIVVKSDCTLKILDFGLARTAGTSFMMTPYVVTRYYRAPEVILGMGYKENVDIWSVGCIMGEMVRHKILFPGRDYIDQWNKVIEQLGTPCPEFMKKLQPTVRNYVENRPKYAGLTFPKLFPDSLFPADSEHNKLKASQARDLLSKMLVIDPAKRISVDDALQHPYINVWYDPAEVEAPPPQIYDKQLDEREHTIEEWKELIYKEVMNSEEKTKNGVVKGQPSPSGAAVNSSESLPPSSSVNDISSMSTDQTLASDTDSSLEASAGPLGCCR
Outline: as §1

SIK2 = SIK2 (Homo sapiens, UniProt Q9H0K1); conditions: SIK2, 1 µM inhibitor; read-out: Residual activity, %
Sequence of SIK2 (Q9H0K1 whole entry): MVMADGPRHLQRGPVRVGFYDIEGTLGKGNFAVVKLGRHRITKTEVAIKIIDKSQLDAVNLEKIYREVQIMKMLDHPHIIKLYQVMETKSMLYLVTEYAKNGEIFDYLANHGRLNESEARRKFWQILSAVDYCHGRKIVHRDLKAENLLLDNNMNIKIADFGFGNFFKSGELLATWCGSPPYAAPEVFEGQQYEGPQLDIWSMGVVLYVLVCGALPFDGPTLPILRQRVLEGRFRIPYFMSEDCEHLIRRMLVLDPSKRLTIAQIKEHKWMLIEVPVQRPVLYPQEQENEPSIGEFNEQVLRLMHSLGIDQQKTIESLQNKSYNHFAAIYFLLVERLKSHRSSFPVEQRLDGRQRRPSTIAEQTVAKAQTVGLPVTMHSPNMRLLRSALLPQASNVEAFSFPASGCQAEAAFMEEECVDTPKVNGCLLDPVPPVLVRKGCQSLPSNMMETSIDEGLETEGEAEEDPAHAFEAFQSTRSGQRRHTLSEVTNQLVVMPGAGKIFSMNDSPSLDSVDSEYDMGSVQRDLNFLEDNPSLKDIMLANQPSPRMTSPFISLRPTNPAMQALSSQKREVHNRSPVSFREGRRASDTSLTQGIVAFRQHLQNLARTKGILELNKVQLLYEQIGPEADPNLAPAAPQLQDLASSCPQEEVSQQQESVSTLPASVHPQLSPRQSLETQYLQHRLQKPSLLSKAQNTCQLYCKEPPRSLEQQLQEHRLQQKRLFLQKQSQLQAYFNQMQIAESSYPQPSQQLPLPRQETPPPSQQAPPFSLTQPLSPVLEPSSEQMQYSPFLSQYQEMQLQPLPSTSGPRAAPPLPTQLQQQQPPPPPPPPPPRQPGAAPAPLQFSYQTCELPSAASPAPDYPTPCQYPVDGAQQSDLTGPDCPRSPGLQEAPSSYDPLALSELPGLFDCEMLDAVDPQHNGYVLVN
Outline: as §1

RSK2 = RSK2 (Homo sapiens, UniProt P51812); conditions: RSK2, 1 µM inhibitor; read-out: Residual activity, %
Sequence of RSK2 (P51812 whole entry): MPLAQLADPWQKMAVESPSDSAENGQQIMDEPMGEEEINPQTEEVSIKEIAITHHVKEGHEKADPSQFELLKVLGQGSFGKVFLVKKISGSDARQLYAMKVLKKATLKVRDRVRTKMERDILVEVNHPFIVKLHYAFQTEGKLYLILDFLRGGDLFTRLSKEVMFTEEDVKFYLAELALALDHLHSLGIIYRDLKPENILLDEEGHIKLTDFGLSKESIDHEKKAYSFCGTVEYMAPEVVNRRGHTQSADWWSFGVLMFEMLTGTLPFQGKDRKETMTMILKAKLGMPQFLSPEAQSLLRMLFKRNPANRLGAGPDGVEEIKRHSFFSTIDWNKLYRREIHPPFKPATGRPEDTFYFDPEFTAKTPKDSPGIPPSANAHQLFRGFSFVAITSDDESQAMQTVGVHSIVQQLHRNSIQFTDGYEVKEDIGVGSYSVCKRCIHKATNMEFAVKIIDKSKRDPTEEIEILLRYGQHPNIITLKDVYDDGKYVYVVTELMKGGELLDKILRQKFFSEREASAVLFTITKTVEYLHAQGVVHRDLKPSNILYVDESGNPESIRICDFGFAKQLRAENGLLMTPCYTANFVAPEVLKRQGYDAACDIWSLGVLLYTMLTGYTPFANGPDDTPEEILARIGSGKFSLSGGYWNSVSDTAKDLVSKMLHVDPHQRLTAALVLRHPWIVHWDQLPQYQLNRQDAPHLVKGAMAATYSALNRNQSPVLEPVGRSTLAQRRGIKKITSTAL
Outline: as §1

CSK = CSK (Homo sapiens, UniProt P41240); conditions: 1 µM inhibitor, read-out: Residual activity, %
Sequence of CSK (P41240 whole entry): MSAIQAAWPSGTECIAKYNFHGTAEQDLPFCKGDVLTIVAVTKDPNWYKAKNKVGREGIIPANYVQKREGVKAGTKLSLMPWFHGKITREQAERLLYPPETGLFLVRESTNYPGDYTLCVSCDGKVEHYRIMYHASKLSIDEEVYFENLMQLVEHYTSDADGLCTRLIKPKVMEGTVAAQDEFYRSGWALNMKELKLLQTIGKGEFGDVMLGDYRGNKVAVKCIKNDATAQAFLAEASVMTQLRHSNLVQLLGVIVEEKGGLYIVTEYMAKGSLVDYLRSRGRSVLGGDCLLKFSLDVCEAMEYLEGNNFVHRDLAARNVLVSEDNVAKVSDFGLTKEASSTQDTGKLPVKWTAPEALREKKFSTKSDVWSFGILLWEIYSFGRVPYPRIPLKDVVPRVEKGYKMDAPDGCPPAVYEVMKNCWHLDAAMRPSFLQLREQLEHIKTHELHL
Outline: as §1

PRAK = molecular target: T3, PRAK (Homo sapiens, UniProt Q8IW41); conditions: 1 µM inhibitor, read-out: Residual activity, %
T3 sequence (Q8IW41 1-473): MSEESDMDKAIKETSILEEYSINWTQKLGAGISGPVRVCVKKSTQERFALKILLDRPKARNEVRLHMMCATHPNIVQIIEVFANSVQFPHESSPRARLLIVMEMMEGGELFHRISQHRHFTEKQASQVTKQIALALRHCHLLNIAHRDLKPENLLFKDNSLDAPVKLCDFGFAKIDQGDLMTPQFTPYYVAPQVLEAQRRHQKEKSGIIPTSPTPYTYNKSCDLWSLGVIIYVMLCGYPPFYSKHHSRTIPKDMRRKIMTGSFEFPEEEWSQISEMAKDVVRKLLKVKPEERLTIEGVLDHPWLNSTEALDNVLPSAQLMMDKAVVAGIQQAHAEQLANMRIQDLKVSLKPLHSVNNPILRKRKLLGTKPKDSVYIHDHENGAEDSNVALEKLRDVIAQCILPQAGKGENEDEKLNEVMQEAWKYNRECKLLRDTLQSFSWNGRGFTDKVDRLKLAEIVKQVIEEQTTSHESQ
Outline: as §1

SmMLCK = SmMLCK (Homo sapiens, UniProt Q15746); conditions: 1 µM inhibitor, read-out: Residual activity, %
Outline: as §1

IRAK1 = IRAK1 (Homo sapiens, UniProt P51617); conditions: IRAK1, 1 µM inhibitor; read-out: Residual activity, %
Sequence of IRAK1 (P51617 whole entry): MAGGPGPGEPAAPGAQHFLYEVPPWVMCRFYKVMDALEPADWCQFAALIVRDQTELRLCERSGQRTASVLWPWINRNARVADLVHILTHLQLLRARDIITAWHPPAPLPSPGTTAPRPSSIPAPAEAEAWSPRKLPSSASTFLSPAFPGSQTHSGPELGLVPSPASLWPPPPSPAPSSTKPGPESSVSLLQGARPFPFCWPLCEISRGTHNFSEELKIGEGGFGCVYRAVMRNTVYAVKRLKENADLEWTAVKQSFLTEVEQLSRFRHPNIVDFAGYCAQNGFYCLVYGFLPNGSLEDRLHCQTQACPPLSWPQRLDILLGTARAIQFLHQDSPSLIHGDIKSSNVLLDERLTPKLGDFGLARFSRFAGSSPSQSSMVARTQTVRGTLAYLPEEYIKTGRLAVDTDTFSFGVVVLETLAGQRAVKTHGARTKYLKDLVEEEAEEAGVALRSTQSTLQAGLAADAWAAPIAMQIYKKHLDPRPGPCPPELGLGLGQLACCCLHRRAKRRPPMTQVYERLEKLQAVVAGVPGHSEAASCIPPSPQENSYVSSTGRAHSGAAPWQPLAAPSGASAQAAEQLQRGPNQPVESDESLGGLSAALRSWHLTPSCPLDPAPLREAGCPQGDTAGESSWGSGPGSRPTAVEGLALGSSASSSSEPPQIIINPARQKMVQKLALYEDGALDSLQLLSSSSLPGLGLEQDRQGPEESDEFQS
Outline: as §1

Row | SMILES | remaining activity at 1 µM (MAPKAP-K3) | remaining activity at 1 µM (MKK6) | remaining activity at 1 µM (TTBK1) | remaining activity at 1 µM (NEK2) | remaining activity at 1 µM (FGF-R1) | remaining activity at 1 µM (Lck) | remaining activity at 1 µM (MPSK1) | remaining activity at 1 µM (JNK3) | remaining activity at 1 µM (SIK2) | remaining activity at 1 µM (RSK2) | remaining activity at 1 µM (CSK) | remaining activity at 1 µM (PRAK) | remaining activity at 1 µM (SmMLCK) | remaining activity at 1 µM (IRAK1)
1 | N=C(N)NCCC[C@@H](NC(=O)CNC(=O)[C@@H](CCCNC(=N)N)NC(=O)[C@@H](CCCNC(=N)N)NC(=O)Cn1cc(CNCc2nc3c(sc4ccc(Br)cc43)c(=O)[nH]2)nn1)C(=O)N[C@H](CCCCN)C(N)=O [Compound 3, BBTP-Amt-(D-Arg)2-Gly-D-Arg-D-Lys-NH2] | 85 ± 5% | 126 ± 10% | 99 ± 6% | 92 ± 1% | 110 ± 2% | 78 ± 6% | 110 ± 2% | 113 ± 22% | 68 ± 3% | 106 ± 11% | 116 ± 5% | 79 ± 7% | 94% | 113 ± 11%
2 | N=C(N)NCCC[C@@H](NC(=O)CCCCCNCc1nc2c(sc3cc(Br)cnc32)c(=O)[nH]1)C(=O)N[C@H](CCCNC(=N)N)C(=O)N[C@H](CCCNC(=N)N)C(=O)N[C@H](CCCNC(=N)N)C(=O)N[C@H](CCCNC(=N)N)C(=O)N[C@H](CCCNC(=N)N)C(=O)N[C@H](CCCCN)C(N)=O [ARC-3126, BPTP-Ahx-(D-Arg)6-D-Lys-NH2] (X3-[dR][dR][dR][dR][dR][dR][dK]-NH2) | 43 ± 7% | 105 ± 1% | 103 ± 4% | 91 ± 2% | 102 ± 3% | 132 ± 28% | 79 ± 11% | 121 ± 5% | 109 ± 6% | 86 ± 15% | 91 ± 18% | 97 ± 7% | 116 ± 39% | 120 ± 2%
3 | N=C(N)NCCC[C@@H](NC(=O)CCCCCNC(=O)Cn1cnc2c(I)c(I)c(I)c(I)c21)C(=O)N[C@H](CCCNC(=N)N)C(=O)N[C@H](CCCNC(=N)N)C(=O)N[C@H](CCCNC(=N)N)C(=O)N[C@H](CCCNC(=N)N)C(=O)N[C@H](CCCNC(=N)N)C(=O)N[C@H](CCCCN)C(N)=O [ARC-3125, TIBI-CH2-C(=O)-Ahx-(D-Arg)6-D-Lys-NH2] | 48 ± 1% | 110 ± 10% | 123 ± 25% | 21 ± 3% | 100 ± 19% | 226 ± 7% | 75 ± 3% | 120 ± 2% | 34 ± 4% | 17 ± 1% | 85 ± 2% | 112 ± 3% | 66 ± 1% | 16 ± 3%
4 | N=C(N)NCCC[C@@H](NC(=O)CNC(=O)[C@@H](CCCNC(=N)N)NC(=O)[C@@H](CCCNC(=N)N)NC(=O)CCCCCCCNCc1nc2c(sc3cc(Br)cnc32)c(=O)[nH]1)C(=O)N[C@H](CCCCN)C(N)=O [Compound 1, BPTP-Aoc-(D-Arg)2-Gly-D-Arg-D-Lys-NH2] | 111 ± 6% | 122 ± 2% | 116 ± 5% | 108 ± 5% | 142 ± 8% | 94 ± 18% | 113 ± 21% | 92% | 110 ± 5% | 109 ± 11% | 141 ± 10% | 104 ± 13% | 98 ± 5% | 131 ± 17%
5 | N=C(N)NCCC[C@@H](NC(=O)CNC(=O)[C@@H](CCCNC(=N)N)NC(=O)[C@@H](CCCNC(=N)N)NC(=O)CCCCCCCNCc1nc2c(sc3ccc(Br)cc32)c(=O)[nH]1)C(=O)N[C@H](CCCCN)C(N)=O [Compound 2, BBTP-Aoc-(D-Arg)2-Gly-D-Arg-D-Lys-NH2] | 110 ± 11% | 121 ± 3% | 97 ± 7% | 119 ± 12% | 126 ± 10% | 103 ± 18% | 113 ± 15% | 108 ± 3% | 107 ± 10% | 92 ± 10% | 112 ± 20% | 89% | 98 ± 9% | 134 ± 21%
